Test results as given in patent publication US20120083001A1.
Read-outs that look alike come from different tables or passages of the source.

Legend:
[1] = target: β1 adrenergic receptor (rat) (UniProt P18090); experiment: cell-based or functional assay
[2] = target: β1 adrenergic receptor (rat) (UniProt P18090); experiment: cell-based or functional assay; remark: listed apart in the source

β1 adrenergic receptor (rat), sequence (P18090 whole entry): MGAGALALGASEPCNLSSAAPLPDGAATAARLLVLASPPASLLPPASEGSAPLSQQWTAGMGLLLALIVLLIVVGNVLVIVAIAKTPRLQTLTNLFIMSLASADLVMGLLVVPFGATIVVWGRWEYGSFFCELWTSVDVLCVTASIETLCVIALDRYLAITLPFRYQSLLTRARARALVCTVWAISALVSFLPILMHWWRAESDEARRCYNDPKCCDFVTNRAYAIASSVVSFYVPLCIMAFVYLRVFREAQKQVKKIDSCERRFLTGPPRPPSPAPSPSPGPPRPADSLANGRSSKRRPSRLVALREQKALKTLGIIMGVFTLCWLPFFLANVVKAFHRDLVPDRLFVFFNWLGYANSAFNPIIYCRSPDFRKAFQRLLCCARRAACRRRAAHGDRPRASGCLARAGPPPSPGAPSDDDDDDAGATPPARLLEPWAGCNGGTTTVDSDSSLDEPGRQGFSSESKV

Change Level in Current Density [pA/pF] (ISO 30 nM against no ISO) [1]: -9.14 pA/pF | Change Level in Current Density [pA/pF] (ISO 30 nM against no ISO) [2]: -16.4 pA/pF | Current Change Level [nA] [2]: -0.2 nA | membrane current value immediately after the pulse, ISO not supplied (whole-cell patch clamp) [2]: -0.2 nA | membrane current value, ISO supplied (whole-cell patch clamp) [2]: 0.5 nA
Substance: Gαi (C351G) (from UniProt B2RSH2 2-354)
